How the values were obtained:
T2DM patients = assay: Rosiglitazone treatment of T2DM patients: serum lipocalin-2 and metabolic parameters; assay type: in vivo, human; details: 32 T2DM patients, rosiglitazone 4 mg twice daily, 8 weeks
Description: The affinity-purified anti-human or anti-murine lipocalin-2 IgG was biotinylated with a kit from Pierce and used as the detection antibodies. The unlabeled anti-human or anti-murine lipocalin-2 IgG was used for coating a 96-well microtiter plate overnight at 4° C. Human or mouse serum was diluted (1:50) into PBS, and 100 μl of the diluted samples or recombinant standards were applied to each well and incubated at 37° C. for 1 h. The plates were washed three times and then incubated with 100 μl of the detection antibody for another 2 h. After washing for another three times with PBS, the wells were incubated with streptavidin-conjugated horseradish peroxidase for 1 h and subsequently reacted with tetramethyl-benzidine reagent for 15 min. A total of 100 μl of 2 M H2SO4 was added to each well to stop the reaction, and the absorbance at 450 nm was measured. The intra- and inter-assay coefficients of variance were determined by measuring five serum samples in a total of six independent assays with duplicate determinations.
The effect of rosiglitazone on serum levels of lipocalin-2 was investigated in 32 T2DM patients (see Example 2) treated with this drug (4 mg twice daily) for 8 weeks.

C57 mice = assay: Chronic treatment of C57 mice with recombinant lipocalin-2: body weight, food intake, metabolic parameters, ipGTT and ITT; assay type: in vivo, mouse
Description: Fasting (16 hr) plasma glucose levels and triglyceride (TG) concentrations were measured by using a Glucose (GO) assay kit (Sigma) and Triglyceride GPO reagent (Pointe Scientific Inc., Lincoln Park, Mich., USA) respectively. Fasting serum insulin concentrations were quantified by using the commercial ELISA kits from Mercodia AB (Uppsala, Sweden). Serum total cholesterol and free fatty acids (FFAs) were analyzed by using the kits from Wako (Richmond, Va., USA) and Roche Diagnostics respectively. TG contents in liver and soleus muscle were analyzed as described elsewhere (Ellis, B. A et al., Am J Physiol Endocrinol Metab. 279:E554-560 (2000); Xu, A., et al. J Clin Invest 112:91-100 (2003)).
For ipGTT, overnight fasted mice (16 hr) were given a glucose load by intraperitoneal injection (1 g glucose/kg body weight). For ITT, mice were starved for 6 h, and then intraperitonally injected with insulin (1 U/kg body weight). Plasma glucose levels were measured at different time points as indicated.
(§1) To evaluate the effect of lipocalin-2 on glucose homeostasis and insulin sensitivity, normal C57 mice were treated with murine lipocalin-2 by intraperitoneal injection of the recombinant protein (5 mg protein/kg body weight, twice a day at 12 hr intervals).

[1] = tested on: genes involved in glucose and lipid metabolism in skeletal muscle and liver; assay: mRNA expression of genes involved in glucose and lipid metabolism in skeletal muscle and liver of lipocalin-2-treated mice; assay type: in vivo, mouse; details: versus vehicle
Description: Total RNA was isolated from mouse liver, epididymal adipose tissue and soleus muscle using the RNeasy kit (Qiagen). Subsequently, mRNA was reverse transcribed into cDNA using the oligo-dT primer (Roche). The relative gene abundance was quantified by Taqman real-time PCR using the pre-developed assay kits (Applied Biosystems, Foster city, CA). The reactions were performed on the ABI 7000 sequence detection system.
as §1
The effects of lipocalin-2 on mRNA expression of several genes involved in glucose and lipid metabolism in skeletal muscle and liver were investigated (FIGS. 4A-4B).

L6 myotubes [2] = assay: Fatty acid uptake, fatty acid oxidation and triglyceride accumulation in L6 myotubes; assay type: cell-based, rat
Excerpt: FIG. 5A is a bar graph of […] ^3H-palmitate uptake (fold over control) in differentiated L6 myotubes treated with the indicated concentrations of lipocalin-2 or vehicle for 48 hr. FIG. 5B is a bar graph of ^14C-oleate oxidation (fold over control) in differentiated L6 myotubes treated with the indicated concentrations of lipocalin-2 or vehicle for 48 hr. Fatty acid oxidation was quantified by the production of ^14CO2 from [1-^14C]oleate. * P<0.05; ** P<0.01 versus untreated cells.
(§2) Rat L6 skeletal myoblasts were grown in α-minimum essential medium (αMEM) containing 10% (v/v) FBS and 1% antibiotic solution (100 units/ml penicillin, 100 μg/ml streptomycin, 250 ng/ml amphotericin B) in a humidified atmosphere of 95% air and 5% CO2 at 37° C. For differentiation to myotubes, cells were cultured in αMEM containing 2% (v/v) FBS for 5-7 days.
[^3H]-palmitic acid (Amersham, Quebec, Canada) was used to determine fatty acid uptake as previously described (Bastie, C. C., et al. Diabetes, 53:2209-2216 (2004)). with slight modifications. […] After treatments, culture medium was removed and cells washed twice with wash buffer (140 mM NaCl, 20 mM HEPES-Na, 2.5 mM MgSO4, 1 mM CaCl2, 5 mM KCl pH 7.4, 0.1% defatted albumin) and once with HEPES buffer. Cells were subsequently incubated with transport solution (10 μM defatted albumin, 0.5 μCi/ml [^3H]-palmitic acid; FA:BSA ratio=2) for 1 minute at room temperature. Then the reaction was stopped by washing with pre-cold stop buffer (140 mM NaCl, 20 mM HEPES-Na, 2.5 mM MgSO4, 1 mM CaCl2, 5 mM KCl pH 7.4) Non-specific uptake was measured in the presence of excess palmitate (2 mM) and subtracted from all other values. Cells were then lysed with 1 M KOH and aliquots were transferred to scintillation vials for ^3H radioactivity counting.

L6 myotubes [3] = assay: 2-deoxyglucose uptake in L6 myotubes; assay type: cell-based, rat
Description: FIG. 6 is a bar graph of 2-deoxyglucose uptake (arbitrary units) in L6 myotubes treated without or with indicated concentrations of lipocalin-2 for 48 hr, and then stimulated without or with insulin for another 20 min. The rate of glucose uptake was measured by uptake of 2-deoxy-D-[^3H]glucose. * P<0.05 versus untreated cells; # P<0.05 versus cells treated with insulin alone (n=4-6).
as §2
Cells were incubated with various concentration of lipocalin-2 for 20 h, subsequently serum-starved in the continued presence of lipocalin-2 for the final 4 h in 24-well plates prior to further treatment. Cells were then washed twice with PBS and treated with insulin or vehicle for 15 min. After treatments, glucose uptake was determined. Briefly, cells were incubated in transport solution (140 mM NaCl, 20 mM HEPES-Na, 2.5 mM MgSO4, 1 mM CaCl2, 5 mM KCl and 0.5 μCi/ml 2-deoxy-D-[^3H]glucose, pH 7.4) for 5 min at room temperature. Nonspecific uptake was measured in the presence of cytochalasin B (10 μM). Cells were then lysed with 1 M KOH, and aliquots were transferred to scintillation vials for ^3H radioactivity counting.

[4] = fasting, recombinant lipocalin-2 5 mg/kg i.p. twice a day, 4 weeks
[5] = recombinant lipocalin-2 5 mg/kg i.p. twice a day, 4 weeks
[6] = liver tissue of lipocalin-2-treated mice
[7] = skeletal muscle of lipocalin-2-treated mice
[8] = L6 myotubes, acute treatment within 2 hr (data not shown)

CN(CCOc1ccc(CC2SC(=O)NC2=O)cc1)c1ccccn1 (centres unmarked) [rosiglitazone]
Body Mass Index (T2DM patients): 25.5 ± 3.6 Kg/m^2 | Fasting Glucose (T2DM patients): 6.8 ± 1.2 mM | Fasting Insulin (T2DM patients): 7.9 ± 3.5 mIU/l | HOMA-IR (T2DM patients): 2.4 ± 1.2 | Lipocalin-2 (serum level) (T2DM patients): 61.9 ± 25.9 ng/mL

B1: Lipocalin-2: recombinant murine lipocalin-2 expressed in BL21 cells, His6 tag and endotoxin removed (protein)
chain: QDSTQNLIPAPSLLTVPLQPDFRSDQFRGRWYVVGLAGNAVQKKTEGSFTMYSTIYELQENNSYNVTSILVRDQDQGCRYWIRTFVPSSRAGQFTLGNMHRYPQVQSYNVQVATTDYNQFAMVFFRKTSENKQYFKITLYGRTKELSPELKERFTRFAKSLGLKDDNIIFSVPTDQCIDN
modifications: left off: small tags and cut ends
notes: recombinant murine lipocalin-2 expressed in BL21 cells, His6 tag and endotoxin removed
daily average of serum lipocalin-2 levels, higher than that of the endogenous protein (C57 mice; 5 mg protein/kg i.p. twice a day at 12 hr intervals): 2.2-3.5 folds | Plasma glucose (C57 mice; [4]): 137.4 ± 11.6 mg/dL | Plasma insulin (C57 mice; [4]): 1.5 ± 0.04 ng/mL | Serum TG (C57 mice; [4]): 93.9 ± 8.9 mg/dL | glucose tolerance (ipGTT) (C57 mice; long-term lipocalin-2 treatment, day 24, 1 g glucose/kg i.p.): induced glucose intolerance | insulin sensitivity (ITT) (C57 mice; long-term lipocalin-2 treatment, day 26, insulin 1 U/kg i.p.): decreased insulin sensitivity | Serum FFAs (C57 mice; [5]): 0.72 ± 0.08 mmol/L | Serum adiponectin (C57 mice; [5]): 7.9 ± 1.8 µg/mL | Serum total cholesterol (C57 mice; [5]): 101.4 ± 8.8 mg/dL | TG contents in liver (C57 mice; [5]): 6.9 ± 0.8 mg/g tissue | TG contents in muscle (C57 mice; [5]): 7.3 ± 0.8 mg/g tissue | expression of glucose-6-phosphatase (G6P) [1, 6]: modest, but significant increase | expression of phosphoenolpyruvate carboxylase (PEPCK) [1, 6]: modest, but significant increase | expression of several genes involved in fatty acid transport, synthesis and oxidation [1, 6]: did not modulate | expression of GLUT1 [1, 7]: decreased | expression of GLUT4, acetyl CoA carboxylase (ACO) and several other fatty acid transport proteins (FATP2, 3 and 5, and CD36) [1, 7]: did not affect | expression of acyl-CoA oxidase [1, 7]: inhibited | expression of uncoupling protein 2 (UCP2) [1, 7]: inhibited | steady-state mRNA level of fatty acid transport protein 1 (FATP-1) [1, 7]: significantly increased | steady-state mRNA level of fatty acid transport protein 4 (FATP-4) [1, 7]: significantly increased | triglyceride accumulation, increase compared with untreated cells (L6 myotubes [2]; L6 myotubes at 72 hr following lipocalin-2 treatment, n=4, p<0.05): 1.51±0.58 folds | fatty acid uptake and oxidation, acute treatment (L6 myotubes [2]; [8]): no obvious effects | fatty acid uptake (L6 myotubes [2]; L6 myotubes, prolonged incubation with lipocalin-2 (24 h and 48 h), 3H-palmitate): significant increase | rate of fatty acid oxidation (L6 myotubes [2]; L6 myotubes, prolonged incubation with lipocalin-2 (24 h and 48 h), 14C-oleate): decrease | basal glucose uptake (L6 myotubes [3]; L6 myotubes at 48 hr after lipocalin-2 treatment): significantly decreased | basal and insulin-stimulated glucose uptake, acute treatment (L6 myotubes [3]; [8]): no obvious effects | magnitude of insulin-stimulated increase in glucose uptake, versus untreated cells (L6 myotubes [3]; L6 myotubes, lipocalin-2-treated, not statistically significant): slightly lower
